Experimental data published in publication PMC11601812.

Tests used:
[1] = molecular target: progesterone receptor isoform A (PR-A), full-length, Strep II tagged (human) (UniProt P06401); test: SEC-MALS; R5020-bound PR-A, SRC3 and p300 mixed with PRE DNA; Superose 6 Increase; 20 mM Hepes, 50 mM NaCl, 5% glycerol, 1 mM TCEP, with or without 1 M urea, pH 7.5
[2] = molecular target: steroid receptor coactivator 3 (SRC3), full-length, Strep II tagged (human) (UniProt Q9Y6Q9); test: as above
steroid receptor coactivator 3 (SRC3), full-length, Strep II tagged (human), sequence (Q9Y6Q9 whole entry): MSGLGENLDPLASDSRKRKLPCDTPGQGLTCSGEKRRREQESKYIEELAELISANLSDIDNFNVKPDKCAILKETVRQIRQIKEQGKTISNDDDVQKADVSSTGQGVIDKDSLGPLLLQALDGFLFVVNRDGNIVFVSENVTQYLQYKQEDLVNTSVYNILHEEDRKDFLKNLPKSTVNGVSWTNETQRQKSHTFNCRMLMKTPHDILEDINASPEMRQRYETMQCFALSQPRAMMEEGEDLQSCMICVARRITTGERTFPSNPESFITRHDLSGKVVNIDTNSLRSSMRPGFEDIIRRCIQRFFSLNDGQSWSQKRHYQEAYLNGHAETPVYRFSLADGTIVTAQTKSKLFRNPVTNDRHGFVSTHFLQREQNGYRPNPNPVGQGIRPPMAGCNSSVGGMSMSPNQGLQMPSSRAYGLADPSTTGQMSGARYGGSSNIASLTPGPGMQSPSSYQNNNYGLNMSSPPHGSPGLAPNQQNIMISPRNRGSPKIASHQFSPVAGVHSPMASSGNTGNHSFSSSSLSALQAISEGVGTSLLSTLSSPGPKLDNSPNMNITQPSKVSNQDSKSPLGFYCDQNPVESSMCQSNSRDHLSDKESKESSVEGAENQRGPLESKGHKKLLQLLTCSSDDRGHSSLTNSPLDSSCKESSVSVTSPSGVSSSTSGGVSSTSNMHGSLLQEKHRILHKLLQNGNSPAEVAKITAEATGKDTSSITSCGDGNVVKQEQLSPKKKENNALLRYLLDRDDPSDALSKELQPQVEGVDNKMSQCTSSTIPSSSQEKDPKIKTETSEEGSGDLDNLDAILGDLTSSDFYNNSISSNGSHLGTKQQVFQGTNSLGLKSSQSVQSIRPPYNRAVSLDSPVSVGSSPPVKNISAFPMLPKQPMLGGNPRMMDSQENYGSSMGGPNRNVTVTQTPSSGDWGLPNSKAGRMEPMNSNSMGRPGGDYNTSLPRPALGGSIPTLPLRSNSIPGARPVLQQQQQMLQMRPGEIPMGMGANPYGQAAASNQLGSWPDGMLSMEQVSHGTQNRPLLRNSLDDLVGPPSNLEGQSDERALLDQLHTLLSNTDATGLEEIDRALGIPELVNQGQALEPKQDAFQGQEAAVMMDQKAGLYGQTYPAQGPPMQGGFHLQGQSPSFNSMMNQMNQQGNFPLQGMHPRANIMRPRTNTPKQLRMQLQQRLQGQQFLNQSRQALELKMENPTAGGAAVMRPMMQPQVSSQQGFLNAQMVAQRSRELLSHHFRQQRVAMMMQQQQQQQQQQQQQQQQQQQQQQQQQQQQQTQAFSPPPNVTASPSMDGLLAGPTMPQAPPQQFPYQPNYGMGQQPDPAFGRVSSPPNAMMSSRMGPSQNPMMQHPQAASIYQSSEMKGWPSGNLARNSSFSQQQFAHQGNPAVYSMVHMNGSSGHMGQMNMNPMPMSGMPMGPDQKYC

progesterone receptor isoform A (PR-A), full-length, Strep II tagged (human), sequence (P06401 165-933): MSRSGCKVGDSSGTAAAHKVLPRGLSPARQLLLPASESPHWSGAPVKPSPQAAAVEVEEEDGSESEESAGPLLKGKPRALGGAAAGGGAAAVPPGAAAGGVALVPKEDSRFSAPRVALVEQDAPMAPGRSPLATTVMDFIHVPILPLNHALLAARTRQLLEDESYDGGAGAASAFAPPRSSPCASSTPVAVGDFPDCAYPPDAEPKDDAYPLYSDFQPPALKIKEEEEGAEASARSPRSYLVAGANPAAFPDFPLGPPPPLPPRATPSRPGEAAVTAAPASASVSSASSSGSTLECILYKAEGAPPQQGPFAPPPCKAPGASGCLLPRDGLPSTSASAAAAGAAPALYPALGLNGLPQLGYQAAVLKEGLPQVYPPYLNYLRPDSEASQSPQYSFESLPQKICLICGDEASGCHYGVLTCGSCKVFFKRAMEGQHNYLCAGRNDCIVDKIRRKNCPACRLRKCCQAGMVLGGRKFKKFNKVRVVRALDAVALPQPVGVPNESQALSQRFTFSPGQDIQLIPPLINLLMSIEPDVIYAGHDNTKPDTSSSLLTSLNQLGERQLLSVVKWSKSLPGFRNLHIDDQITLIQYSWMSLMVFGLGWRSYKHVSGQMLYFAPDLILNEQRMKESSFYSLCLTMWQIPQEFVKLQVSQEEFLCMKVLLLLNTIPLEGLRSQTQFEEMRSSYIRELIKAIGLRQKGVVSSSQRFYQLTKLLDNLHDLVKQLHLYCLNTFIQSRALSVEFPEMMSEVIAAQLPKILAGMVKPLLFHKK

stoichiometry N [1]: 0.5 | stoichiometry N [2]: 1
Substance: histone acetyltransferase p300, full-length, Strep II tagged, Q09472 1-2414
